Laboratory results from publication PMC6610666 (2019).

Biological target: mouse CBP TAZ1 (residues 340-439) (mouse, UniProt P45481 340-439)
Assay: ITC

Sequence of mouse CBP TAZ1 (residues 340-439) (P45481 340-439): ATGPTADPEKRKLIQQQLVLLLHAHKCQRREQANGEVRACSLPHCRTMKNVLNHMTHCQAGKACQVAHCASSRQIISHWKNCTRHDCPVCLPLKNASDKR

- Kd: 700 nM
Binder: HDYIYNLDESEGVCDLFD (domain or fragment) [human E2F4 transactivation domain (residues 390-407)]
